Test results from article PMC11708414.

Molecular target: heavy mero-myosin (HMM) (rabbit)

In order of rising unregulated myosin ATPase: KM for ACTC protein, 2 mM ATP:
1. wildtype cardiac actin (WT-ACTC) (from UniProt P68032 1-377) (natural protein)  5.63 µM
2. R312C cardiac actin variant (R312C-ACTC) (natural protein)  16.6 µM
3. R312H cardiac actin variant (R312H-ACTC) (natural protein)  24.8 µM
